These results are taken from patent US20210388043A1 (IMMUNEONCO BIOPHARMACEUTICALS SHANGHAI, published 2021).

This experiment has as its target T1, HY03M (human).
T1 construct: Homodimer; also called SIRPαD1-Fc (N89A)
Kind of experiment: ELISA on coated FcγR; HY03M is the reference against which HY03MM was decreased (FIG. 9A).

T1 sequence (chain, as listed by the source limits assumed): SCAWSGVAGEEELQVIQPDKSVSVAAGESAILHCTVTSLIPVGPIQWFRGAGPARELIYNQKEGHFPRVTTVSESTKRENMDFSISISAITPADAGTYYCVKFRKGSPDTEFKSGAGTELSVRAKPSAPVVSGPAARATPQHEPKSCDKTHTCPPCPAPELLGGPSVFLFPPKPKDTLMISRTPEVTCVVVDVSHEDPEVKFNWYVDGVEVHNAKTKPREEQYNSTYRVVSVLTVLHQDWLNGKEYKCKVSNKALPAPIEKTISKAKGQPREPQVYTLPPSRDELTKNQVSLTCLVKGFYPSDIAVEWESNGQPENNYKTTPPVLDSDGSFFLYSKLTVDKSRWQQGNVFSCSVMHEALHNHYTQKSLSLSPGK
Protocol: The binding activities of proteins of the present invention to FcγRs were tested by ELISA as follows.
The plate was left in a refrigerator at 4° C. overnight. Immediately before the test, the plate was washed by 0.05% PBS-T and then blocked by 3% skim milk for 1 hour at room temperature. […] After incubated at room temperature for 1 hour, the liquids in the plate were discarded. […] The plate was incubated at room temperature for 1 hour and then washed by the washing solutions for 5 times. Thereafter, HRP substrates were added to the plate, and the plate was left for colorimetric reaction for 10 to 20 minutes in the dark. The colorimetric reaction was terminated later using 1 N H₂SO₄, and the OD450 value was obtained in a plate reader.

B1: CD32b (FcγRIIb) (receptor, UniProt P31994 46-217, looked up)
chain: APPKAVLKLEPQWINVLQEDSVTLTCRGTHSPESDSIQWFHNGNLIPTHTQPSYRFKANNNDSGEYTCQTGQTSLSDPVHLTVLSEWLVLQTPHLEFQEGETIVLRCHSWKDKPLVKVTFFQNGKSKKFSRSDPNFSIPQANHSHSGDYHCTGNIGYTLYSSKPVTITVQAP
notes: Bought recombinant protein coated on an ELISA plate
On to B1, for which the binding result is given as “binds”.

B2: CD64 (FcγRI) (receptor, UniProt P12314 16-288, looked up)
chain: QVDTTKAVITLQPPWVSVFQEETVTLHCEVLHLPGSSSTQWFLNGTATQTSTPSYRITSASVNDSGEYRCQRGLSGRSDPIQLEIHRGWLLLQVSSRVFTEGEPLALRCHAWKDKLVYNVLYYRNGKAFKFFHWNSNLTILKTNISHNGTYHCSGMGKHRYTSAGISVTVKELFPAPVLNASVTSPLLEGNLVTLSCETKLLLQRPGLQLYFSFYMGSKTLRGRNTSSEYQILTARREDSGLYWCEAATEDGNVLKRSPELELQVLGLQLPTP
notes: as for B1
Take B2: the binding result is reported as “binds”.
